Data from paper PMC6351562, “Structure, function, and inhibition of drug reactivating human gut microbial β-glucuronidases” (Scientific Reports, 2019).

System: O=C(O)[C@H]1O[C@@H](Oc2ccc([N+](=O)[O-])cc2)[C@H](O)[C@@H](O)[C@@H]1O
Test: purified protein, by the assay type
Conditions: other: pNPG as substrate, optimal pH 5.0, 37 °C

Substance: Bacteroides fragilis GUS (BfGUS) (Bacteroides fragilis NCTC 9343)
- Km: 580 ± 90 µM
- kcat: 22 s⁻¹
- kcat/Km: 39000 M⁻¹ s⁻¹
